Measured values reported in US20150344570A1 (published 2015).

T1: FcγRIIa R (human, UniProt P12318 34-217)
T1 construct: extracellular domain; also called FcgRIIa R type; 2aR; not shown: His tag at the C terminus
T1 sequence (looked up): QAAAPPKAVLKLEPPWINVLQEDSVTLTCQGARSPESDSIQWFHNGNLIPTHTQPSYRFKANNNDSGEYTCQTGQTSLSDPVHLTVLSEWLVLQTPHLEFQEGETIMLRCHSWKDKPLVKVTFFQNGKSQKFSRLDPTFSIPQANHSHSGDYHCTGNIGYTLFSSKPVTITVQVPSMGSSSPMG

T2: FcγRIIb (human, UniProt P31994 43-217)
T2 construct: extracellular domain; also called FcgRIIb; 2b; not shown: His tag at the C terminus
T2 sequence (looked up): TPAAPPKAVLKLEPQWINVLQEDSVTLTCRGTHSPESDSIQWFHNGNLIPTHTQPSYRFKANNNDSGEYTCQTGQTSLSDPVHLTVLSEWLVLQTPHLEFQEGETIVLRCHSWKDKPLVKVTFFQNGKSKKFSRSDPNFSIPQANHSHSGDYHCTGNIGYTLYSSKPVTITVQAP

T3: FcγRIIb extracellular domain with C-terminal His tag (human, UniProt P31994 43-217)
T3 construct: extracellular domain; also called FcgRIIb; 2b; not shown: His tag at the C terminus
T3 sequence (looked up): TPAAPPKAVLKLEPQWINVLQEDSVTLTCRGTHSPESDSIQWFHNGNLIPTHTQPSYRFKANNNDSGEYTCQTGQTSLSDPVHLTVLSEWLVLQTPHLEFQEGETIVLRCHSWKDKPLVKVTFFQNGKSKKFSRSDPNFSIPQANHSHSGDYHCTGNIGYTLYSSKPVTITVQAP


What was measured:
FcγRIIa R [1] = molecular target: T1, FcγRIIa R; assay: SPR; He/Con_2aR divided by He/Con_2b (FcγRIIa R over FcγRIIb)
FcγRIIb = molecular target: T2, FcγRIIb; assay: SPR, relative to GpH7-A5/GpH7-B3/GpL16-k0
FcγRIIa R [2] = molecular target: T1, FcγRIIa R; assay: SPR, relative to GpH7-A5/GpH7-B3/GpL16-k0
[3] = molecular target: T4, FcγRIIIa extracellular domain with C-terminal His tag (human, UniProt P08637 17-208); assay: SPR (Biacore); He/Con_3a divided by He/Con_2b (FcγRIIb)
T4 construct: extracellular domain; also called FcgRIIIa; 3a; not shown: His tag at the C terminus
T4 sequence (P08637 17-208): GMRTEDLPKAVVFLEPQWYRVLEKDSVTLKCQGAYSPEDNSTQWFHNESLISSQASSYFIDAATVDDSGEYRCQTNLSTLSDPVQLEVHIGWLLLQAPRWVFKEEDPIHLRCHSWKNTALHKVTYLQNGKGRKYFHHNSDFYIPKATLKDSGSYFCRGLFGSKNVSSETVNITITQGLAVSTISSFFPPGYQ

[4] = molecular target: T4, FcγRIIIa extracellular domain with …; assay: SPR (Biacore), FcγR as analyte over captured antibody; GpH7-A5/GpH7-B3/GpL16-k0 = 100
Procedure: (§1) The heterodimerized antibodies He Abs in which one of the H chains was introduced with an alteration were assayed for their binding activities to each activating FcγR and inhibitory FcγR according to the method described in Example 4. […] The activating FcγRs in FIGS. 26, 27, 28, and 29 are FcγRIa, FcγRIIa (R), FcγRIIa (H), and FcγRIIIa, respectively.
(§2) Analysis of interaction between objective antibody and the FcγR was carried out using Biacore T100 (GE Healthcare). HBS-EP+ (GE Healthcare) was used as the running buffer, and the measurement temperature was set to 25° C. Chips produced by immobilizing the antigen peptide by the amine coupling method to a Series S Sencor Chip CM5 (GE Healthcare), or alternatively, chips produced by allowing preliminarily biotinylated antigen peptides to interact with and immobilize onto a Series S Sensor Chip SA (certified) (GE Healthcare) were used. Antibodies of interest were captured onto an antigen peptide-immobilized chip, and allowed to interact to each FcγR diluted with running buffer. To regenerate and repeatedly use the chip, the antibodies captured on the chip were washed off by reacting 10 mM glycine-HCl, pH 1.5.

[5] = molecular target: T3, FcγRIIb extracellular domain with …; assay: as above
Procedure: as §1, §2

Binder | He_2aR/2b (FcγRIIa R [1]) | He/Con_2b (FcγRIIb) | He/Con_2aR (FcγRIIa R [2]) | He_3a/2b (IIIa/IIb) [3] | He/Con_3a [4] | He/Con_2b [5]
GpH7-A5/GpH7-B3 variant N325_01G/GpL16-k0 (antibody, human IgG1, kappa, Heterodimerized IgG1 antibody; alteration in the GpH7-B3 chain only; also called He Ab) heavy 1: not shown heavy 2: not shown light: DIVMTQSPLSLPVTPGEPASISCQASESLVHSNRNTYLHWYLQKPGQSPQLLIYKVSNRFSGVPDRFSGSGSGTDFTLKISRVEAEDVGVYYCSQNTHVPPTFGQGTKVEIERTVAAPSVFIFPPSDEQLKSGTASVVCLLNNFYPREAKVQWKVDNALQSGNSQESVTEQDSKDSTYSLSSTLTLSKADYEKHKVYACEVTHQGLSSPVTKSFNRGEC |  |  |  | 0.28 ratio | 28 % of control | 101 % of control
GpH7-A5/GpH7-B3 variant A327_16H/GpL16-k0 (antibody, human IgG1, kappa, Heterodimerized IgG1 antibody; alteration in the GpH7-B3 chain only; also called He Ab) heavy 1: not shown heavy 2: not shown light: DIVMTQSPLSLPVTPGEPASISCQASESLVHSNRNTYLHWYLQKPGQSPQLLIYKVSNRFSGVPDRFSGSGSGTDFTLKISRVEAEDVGVYYCSQNTHVPPTFGQGTKVEIERTVAAPSVFIFPPSDEQLKSGTASVVCLLNNFYPREAKVQWKVDNALQSGNSQESVTEQDSKDSTYSLSSTLTLSKADYEKHKVYACEVTHQGLSSPVTKSFNRGEC |  |  |  | 0.69 ratio | 43.7 % of control | 63.5 % of control
GpH7-A5/GpH7-B3 variant A327_08L/GpL16-k0 (antibody, human IgG1, kappa, Heterodimerized IgG1 antibody; alteration in the GpH7-B3 chain only; also called He Ab) heavy 1: not shown heavy 2: not shown light: DIVMTQSPLSLPVTPGEPASISCQASESLVHSNRNTYLHWYLQKPGQSPQLLIYKVSNRFSGVPDRFSGSGSGTDFTLKISRVEAEDVGVYYCSQNTHVPPTFGQGTKVEIERTVAAPSVFIFPPSDEQLKSGTASVVCLLNNFYPREAKVQWKVDNALQSGNSQESVTEQDSKDSTYSLSSTLTLSKADYEKHKVYACEVTHQGLSSPVTKSFNRGEC |  |  |  | 0.67 ratio | 42 % of control | 63.1 % of control
GpH7-A5/GpH7-B3 variant A327_10E/GpL16-k0 (antibody, human IgG1, kappa, Heterodimerized IgG1 antibody; alteration in the GpH7-B3 chain only; also called He Ab) heavy 1: not shown heavy 2: not shown light: DIVMTQSPLSLPVTPGEPASISCQASESLVHSNRNTYLHWYLQKPGQSPQLLIYKVSNRFSGVPDRFSGSGSGTDFTLKISRVEAEDVGVYYCSQNTHVPPTFGQGTKVEIERTVAAPSVFIFPPSDEQLKSGTASVVCLLNNFYPREAKVQWKVDNALQSGNSQESVTEQDSKDSTYSLSSTLTLSKADYEKHKVYACEVTHQGLSSPVTKSFNRGEC |  |  |  | 0.49 ratio | 68.6 % of control | 140 % of control
GpH7-A5/GpH7-B3 variant A327_15Y/GpL16-k0 (antibody, human IgG1, kappa, Heterodimerized IgG1 antibody; alteration in the GpH7-B3 chain only; also called He Ab) heavy 1: not shown heavy 2: not shown light: DIVMTQSPLSLPVTPGEPASISCQASESLVHSNRNTYLHWYLQKPGQSPQLLIYKVSNRFSGVPDRFSGSGSGTDFTLKISRVEAEDVGVYYCSQNTHVPPTFGQGTKVEIERTVAAPSVFIFPPSDEQLKSGTASVVCLLNNFYPREAKVQWKVDNALQSGNSQESVTEQDSKDSTYSLSSTLTLSKADYEKHKVYACEVTHQGLSSPVTKSFNRGEC |  |  |  | 0.77 ratio | 46.8 % of control | 60.8 % of control

More lines, now with the values ahead:

He_2aR/2b (FcγRIIa R [1]) | He/Con_2b (FcγRIIb) | He/Con_2aR (FcγRIIa R [2]) | He_3a/2b (IIIa/IIb) [3] | He/Con_3a [4] | He/Con_2b [5] | Binder
0.6 ratio | 236 control = 100 | 142 control = 100 |  |  |  | GpH7-A5/GpH7-B3 variant V266_08L/GpL16-k0 (antibody, human IgG1, kappa, Heterodimerized anti-glypican-3 IgG1; mutation in the GpH7-B3 chain only; also called He Ab) heavy 1: not shown heavy 2: not shown light: DIVMTQSPLSLPVTPGEPASISCQASESLVHSNRNTYLHWYLQKPGQSPQLLIYKVSNRFSGVPDRFSGSGSGTDFTLKISRVEAEDVGVYYCSQNTHVPPTFGQGTKVEIERTVAAPSVFIFPPSDEQLKSGTASVVCLLNNFYPREAKVQWKVDNALQSGNSQESVTEQDSKDSTYSLSSTLTLSKADYEKHKVYACEVTHQGLSSPVTKSFNRGEC
0.8 ratio | 134 control = 100 | 107 control = 100 |  |  |  | GpH7-A5/GpH7-B3 variant Y300_10E/GpL16-k0 (antibody, human IgG1, kappa, Heterodimerized anti-glypican-3 IgG1; mutation in the GpH7-B3 chain only; also called He Ab) heavy 1: not shown heavy 2: not shown light: DIVMTQSPLSLPVTPGEPASISCQASESLVHSNRNTYLHWYLQKPGQSPQLLIYKVSNRFSGVPDRFSGSGSGTDFTLKISRVEAEDVGVYYCSQNTHVPPTFGQGTKVEIERTVAAPSVFIFPPSDEQLKSGTASVVCLLNNFYPREAKVQWKVDNALQSGNSQESVTEQDSKDSTYSLSSTLTLSKADYEKHKVYACEVTHQGLSSPVTKSFNRGEC
